These results are taken from paper PMC9250616.

Read-outs that look alike come from different tables or passages of the source.

The target in assay [1] is Protective antigen (Bacillus anthracis) (UniProt P13423). As to conditions: cited from earlier work.
Assay [2] shares this target. As to conditions: cited from earlier work. The source holds these as a separate data set.
The target of the next assay is Laminin-111. The experiment in a line: ELISA. (An ELISA detects its analyte on a solid surface through an enzyme-linked reagent.)

For the substance TEM8 (from UniProt Q9H6X2), in assay [1], the Kd (as a rule, the equilibrium constant for the complex coming apart) is 10 nM. CMG2 (from UniProt P58335): the equilibrium dissociation constant (Kd) in assay [2] was 0.2 nM. The substance “biotinylated CMG2-AviTag construct (capillary morphogenesis gene 2, anthrax toxin receptor 2) (from UniProt P58335 34-489)” displayed a Kd with Laminin-111 of 500 nM.
